Experimental data: patent US20090305339A1, “Polypeptides With Laccase Activity” (VIALACTIA BIOSCIENCES (NZ) LIMITED, priority 2006, published 2009)

Experiments:
[1] = Laccase activity, 3,4-dimetoxybenzyl alcohol as substrate; format: biochemical
Procedure: (§1) Laccase activity was determined spectrophotometrically in a thermostated spectrophotometer (Perkin-Elmer) at 40° C. in 100 mM sodium citrate buffer, pH 4.5 (1 ml). The standard assay was performed at 530 nm, using SGZ as the oxidation substrate (ε530=64,000 M^−1cm^−1). The reaction was started by adding SGZ, from a stock solution in methanol, to a final concentration of 20 μM. […] Oxidation of phenol red (75 μM) was determined by the decrease in absorbance at 432 nm. The activity:pH and activity:temperature relationships were determined by incubating the enzyme:substrate mixtures at different pH values and constant temperature (40° C.), and at different temperatures (15-80° C.) and constant pH (4.5), respectively. Catalytic constants were derived by fitting the experimental data onto the Michaelis-Menten model. Control measurements without enzyme were carried out to correct for possible chemical oxidation of the substrates.

[2] = Oxidative reactions of various compounds (substrate preference, overall kinetics, pH range); format: biochemical; settings: order of oxidized substrates
Procedure: as §1

[3] = Electrochemical analysis of immobilized laccase in the presence of DMP; settings: for electrochemical activity (current): DMP
Source text: RL5 was immobilized on BAS glassy carbon electrodes (FIGS. 3B,D) or on gold electrodes (FIGS. 3A,C). Both materials provide different enzyme orientations:
(i) the carbon electrode presents hydroxyl groups on the surface, providing a laccase substrate-like structure, which makes the enzyme to immobilize preferably with the active site facing the electrode surface; and
(ii) gold provides high hydrophobic surface that avoids the contact between the high-hydrophilic density amino acid domain of the enzyme and the electrode, being the hydrophobic domains which preferably orient towards the gold surface.
Some differences in the electrochemical measurements were observed due to the different orientation of the enzyme on the electrode in the presence of substrate (DMP) (FIGS. 3A,B). Thus, when RL5 laccase was immobilized on gold (FIG. 3A), the activity in the presence of oxygen was of 0.38 microamperes (dashed line), whereas in the absence of oxygen it was of 0.69 microamperes (dotted line). Most likely, the enzyme is using approximately half of the electrons for the reduction of the substrate and the other half from the oxygen in the solution; however, in absence of oxygen, all the electrons are used from the electrode, giving a higher measurement value. When using the carbon electrode (FIG. 3B), the enzyme orients in such a way that the measure, in the presence of oxygen, was 2.8 microamperes (dashed line). This could be explained by the fact that 93% of the electrons are used from the electrode, either because of different enzyme orientations, or because the immobilization on carbon kept higher amount (approximately 7 times) of laccase active. In the carbon electrode the T2 copper oxidization potential site, +500 vs. normal hydrogen electrode (NHE) was determined.
The electrochemical measurements have been performed with BAS CV-50W voltammetric analyzer. For gold surface experiments, a gold BAS disc electrode has been used. The electrode was cleaned according to the following procedure: the electrode was firstly immersed in “piranha” solution, containing 1 part of hydrogen peroxide 33% v and 3 parts of sulphuric acid 98%, during 5 minutes, after which the electrode was rinsed thoroughly with milliQ water, and polished with Buehler® micropolish gamma alumina #3, 0.05 micron size, during 5 minutes, on a polishing cloth, further immersed into a milliQ water solution and exposed to ultrasounds for 15 minutes. Then, the electrode was cleaned with sulphuric acid oxidization cyclic voltammetry for 30 minutes. […] After 180 minutes from the first addition, the laccase-modified gold electrode was measured in 100 mM phosphate buffer (pH 6.0) in the presence of oxygen. […]

[4] = Electrochemical analysis of immobilized laccase in absence of substrate; settings: for potential at which electro-reduction of oxygen begins: no substrate
Source text: Electrochemical information on electrodes modified with RL5 laccase in absence of substrate was also obtained (FIGS. 3C,D). Again, we found some differences when the electrode material was gold or glassy carbon. Thus, the electro-reduction of oxygen begins in +250 mV when the electrode was gold (FIG. 3C), while it began at +500 mv when it was glassy carbon (FIG. 3D). We found additional information on the glassy carbon electrode compared with the gold electrode. Thus, when removing the oxygen from solution, the T1 copper site oxidization potential of 740 mV vs. NHE was registered. In addition, when a reactivation with oxygen was performed, the three oxidation potential peaks were registred: T1 of 745 mV vs. NHE was the highest; T3 site of 500 mV vs. NHE had two copper ions, so it is the one with a higher area; T2 site had 400 mV vs. NHE. The redox potential of T1 was registered to be in the range of fungal laccases (480-785 mV) (Solomon et al., 1996; Klonowska etal., 2002).
The electrochemical measurements have been performed with BAS CV-50W voltammetric analyzer. For gold surface experiments, a gold BAS disc electrode has been used. The electrode was cleaned according to the following procedure: the electrode was firstly immersed in “piranha” solution, containing 1 part of hydrogen peroxide 33% v and 3 parts of sulphuric acid 98%, during 5 minutes, after which the electrode was rinsed thoroughly with milliQ water, and polished with Buehler® micropolish gamma alumina #3, 0.05 micron size, during 5 minutes, on a polishing cloth, further immersed into a milliQ water solution and exposed to ultrasounds for 15 minutes. Then, the electrode was cleaned with sulphuric acid oxidization cyclic voltammetry for 30 minutes. The electrode was rinsed three times with milliQ water and polished again for another 5 minutes with the same alumina powder. After the subsequent sonication for 15 minutes, the electrode was finally inmersed into a reductive 0.5 M NaOH solution for 30 minutes and rinsed with milliQ water. The laccase enzyme was immobilized by dropping […] of the enzyme solution at a concentration of 5 mg/ml on the gold surface facing upward and covered to avoid evaporation. After 90 minutes, the second drop was added. After 180 minutes from the first addition, the laccase-modified gold electrode was measured in 100 mM phosphate buffer (pH 6.0) in the presence of oxygen. For measurements under anaerobic conditions, N2 was “bubbled” for 15 minutes into the electrochemical cell. The same procedure was repeated for measuring in presence of 2,6-dimethoxyphenol, used as a test substrate. The immobilization on the carbon electrode was performed on a BAS glassy carbon electrode. The electrode was polished on a graphite-polishing cloth for 5 minutes, until mirror-like surface was achieved. The electrode was rinsed thoroughly with water and, facing upwards, 20 μl of the laccase solution (5 mg/ml) were dropped on the classy carbon surface. The electrode was covered and let to immobilize for 20 minutes. All electrochemical measurements performed for the gold electrode are repeated for this electrode.

[5] = glassy carbon, after reactivation with oxygen, vs. NHE

B1: RL5: polypeptide with laccase activity from bovine rumen metagenome library, amino acid sequence of FIG. 11 (protein)
chain: MIELEKLDFAKSVEGVEAFSTTRGQVDGRNAYSGVNLCDYVGDDALRVLDARLTLAMQLGVDLDDLVMPRQTHSCRVAVIDERFRALDIDEQEAALEGVDALVTRLQGIVIGVNTADCVPIVLVDSQAGIVAVSHAGWRGTVGRIAKAVVEEMCRQGATVDRIQAAMGPSICQDCFEVGDEVVEAFKKAHFNLNDIVVRNPATGKAHIDLRAANRAVLVAAGVPAANIVESQHCSRCEHTSFFSARRLGINSGRTFTGIYRK
modifications: Description of sequence Amino acid sequence of RL5 laccase 3217 to 2414 frame 1 - 262 amino acids (see Figure 11)
[1]
  substrate of the laccase: not substrates
[2]
  substrate preference: SGZ>DMP>veratryl alcohol>guaiacol>tetramethylbenzidine>4-metoxybenzyl alcohol>2ABTS>phenol red
[3]; carbon electrode, presence of oxygen
  electrochemical activity (current): 2.8 microamperes
[3]; carbon electrode, vs. normal hydrogen electrode (NHE)
  T2 copper oxidization potential site: +500
[3]; gold electrode, absence of oxygen
  electrochemical activity (current): 0.69 microamperes
[3]; gold electrode, presence of oxygen
  electrochemical activity (current): 0.38 microamperes
[4]; glassy carbon electrode
  potential at which electro-reduction of oxygen begins: +500 mv
[4]; [5]
  T1 oxidation potential: 745 mV
  T2 site oxidation potential: 400 mV
  T3 site oxidation potential: 500 mV
[4]; glassy carbon, oxygen removed from solution, vs. NHE
  T1 copper site oxidization potential: 740 mV
[4]; gold electrode
  potential at which electro-reduction of oxygen begins: +250 mV
